Experimental data reported in the RNAGym collection of RNA variant scans (doi:10.1073/pnas.2313332121).
This sample holds only a part of the variants without activity.

B1: TPR 5TU (parent)
chain: GGAUCUUCUCGAUCUAACAAAAAAGACAAAUCUGCCACAAAGCUUGAGAGCAUCUUCGGAUGCAGAGGCGGCAGCCUUCGGUGGCGCGAUAGCGCCAACGUUCUCAACUAUGACACGCAAAACGCGUGCUCCGUUGAAUGGAGUUUAUCAUG

Variants of: B1
Assay: polymerase ribozyme fitness, log enrichment relative to wild type (log ratio); higher = more active; in vitro selection for triplet polymerase activity
Method in brief: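 Each subunit of a heterodimeric triplet polymerase ribozyme was mutagenized into a library by PCR, transcribed, and subjected to one round of in vitro selection, run in triplicate. Libraries were annealed with a biotinylated primer, the partner subunit and triplets, incubated frozen at −7 °C, and extended constructs were gel-excised, captured on streptavidin beads and recovered by RT-PCR. Input and output libraries were sequenced on Illumina, keeping genotypes with ≥10 input reads and ≥1 read per output. Fitness is log base 2 of genotype enrichment divided by wild-type enrichment, from inverse-variance-weighted replicate averages.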

Row | Variant | polymerase ribozyme fitness (log ratio)
1 | G59C C87A U101C G141U A147U | ≤ -4.2
2 | G59A C85U C149G | -3.59
3 | G59A A107U G126A | -3.68
4 | G62U G94A | -1.25
5 | G62C C72A A91G A98G C123U | ≤ -4.2
6 | G59A G83U G84A | -1.23
7 | G59U C69U G86A C95G A107U | ≤ -4.2
8 | C63G C72U C93U | -0.337
9 | A60U G86A | -2.78
10 | A60C U82A G84U U102G G126U | ≤ -4.2
11 | U61A C69U A98U | -2.9
12 | U61A C79A G83C | ≤ -4.2
13 | G59C A60U | 0.153
14 | G59C G126C | 0.783
15 | G59U A64G A89G A107C | ≤ -4.2
16 | G65C C87G U102A | ≤ -4.2
17 | G62C C72U C93U G133A G141U | ≤ -4.2
18 | A66G U78G U90C U135G | ≤ -4.2
19 | A60C G84U | -2.22
20 | U61G G92C C95U C105U A106C U109C A138G | ≤ -4.2
21 | G59A A122U | 0.148

Row | Variant | polymerase ribozyme fitness (log ratio)
22 | G62U C95A | -1.1
23 | A60G G94A C103A G140C | ≤ -4.2
24 | G59C U78C C85A U144A A150U | ≤ -4.2
25 | G59U G67A G92U | -3.83
26 | U61A A73G G94U | -3
27 | G59A C95U C103G | -2.47
28 | G59U C85G A119U G128A | -4.19
29 | A66C C76U | -3.47
30 | A60C C76U G80C G117U C123A | ≤ -4.2
31 | C63U A122U | 0.751
32 | A60G G67U C93G U102C | ≤ -4.2
33 | A60G G71A C75A C93U C118G | ≤ -4.2
34 | A60C G92U | -0.296
35 | G62A G67A C72U C75G C93G C95U A120G | ≤ -4.2
36 | U61G C85A G133C | -3.52
37 | A60G U90A C95A G117A | -3.93
38 | G59A C75G A122U C129A G143U | -3.5
39 | A60U G67A A91G A137U | ≤ -4.2
40 | A60G C116A | 1.26
41 | G59A A64U C85A G92A U144C | ≤ -4.2
42 | A60C U61A C69G G74A U146G A150C | ≤ -4.2

Row | Variant | polymerase ribozyme fitness (log ratio)
43 | C63U C85U C95U C149U | -1.91
44 | G58U C105U U134A A137U U144A | ≤ -4.2
45 | G59U A120G | -0.485
46 | G65U U78A | -1.52
47 | A66G G83C U111G | ≤ -4.2
48 | A66G G92C C105U | -4.03
49 | G59U G94A C118U A150G | -1.69
50 | G59C G124A U151C | -3.78
51 | G67A C87A A98U | ≤ -4.2
52 | G59C U109G | -0.84
53 | G67A G74C G94A A119G | ≤ -4.2
54 | U61G G88A | -4.18
55 | G65U U82A C93U C95G | ≤ -4.2
56 | U61G C85A G143C | -3.43
57 | A60C A91U | ≤ -4.2
58 | G59C C75U A98U | -0.152
59 | U61A C76U U102G U109C | ≤ -4.2
60 | A60C G65U C132A | -4.19
61 | G59A G83C A89U | -1.39
62 | G62C C79U G141U | ≤ -4.2
63 | G58U G59U U82A G84A A115U G143A | ≤ -4.2

Row | Variant | polymerase ribozyme fitness (log ratio)
64 | U61A A107C C114U G140U | ≤ -4.2
65 | U61A C76A C87U | -3.68
66 | G62A C103U | -1.66
67 | A60U C85A | -3.04
68 | A60U C85G | -3.14
69 | A60U C85U | -1.46
70 | G62A C76A C79A C96A | ≤ -4.2
71 | G62C G141C | -0.741
72 | A60C C85A G124C | -2.54
73 | U61A A73G C93U C125A | -3.14
74 | A66G C96U A138U U151A | ≤ -4.2
75 | G59U C93A | -3.58
76 | U61A C76A | -3.6
77 | U61A C103G A115U | ≤ -4.2
78 | G59C C76A C87G | ≤ -4.2
79 | A60C C76U C93U | -3.48
80 | A60G C85A U101G | -2.94
81 | G59A A60C C79G G81A U101G C132A U146A | ≤ -4.2
82 | U61A A98U U134G G140U U145A | ≤ -4.2
83 | A66U G94A G100U U148G | ≤ -4.2
